Results reported in patent US10562947B2, “Compositions and methods for preventing or treating diseases, conditions or processes characterized by aberrant fibroblast proliferation and extracellular matrix deposition” (MOERAE MATRIX, INC., priority 2011, dated 2020).
Where a SMILES comes first, the peptide text is derived from it.

Columns and labels:
Experiment in all cases: Kinase Profiling Assay
Assay type in all cases: biochemical
MAPKAP-K2(h) = MAPKAP-K2(h) (Homo sapiens, UniProt P49137); conditions: for MAPKAP-K2(h) % activity: 100 μM peptide
In short: (§1)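 All 266 human kinases of a profiling service were assayed in duplicate to establish whether MK2 inhibitory peptides act specifically.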

MAPK2(h) = MAPK2(h) (Homo sapiens, UniProt P28482); conditions: 100 μM peptide
In short: as §1

Fyn(h) = Fyn(h) (Homo sapiens, UniProt P06241); conditions: 100 μM peptide
In short: as §1

Hck(h) = target: T1, Hck(h) (Homo sapiens, UniProt P08631); conditions: 100 μM peptide
T1 construct: purchased Millipore
In short: as §1

MAPKAP-K3(h) = MAPKAP-K3(h) (Homo sapiens, UniProt Q16644); conditions: for MAPKAP-K3(h) % activity: 100 μM peptide
In short: as §1

cKit(V654A)(h) = cKit(V654A)(h) (Homo sapiens, UniProt P10721, V654A); conditions: 100 μM peptide
In short: as §1

IKKα(h) = target: T2, IKKα(h) (Homo sapiens, UniProt O15111); conditions: 100 μM peptide
T2 construct: purchased Millipore
T2 sequence (O15111 1-745): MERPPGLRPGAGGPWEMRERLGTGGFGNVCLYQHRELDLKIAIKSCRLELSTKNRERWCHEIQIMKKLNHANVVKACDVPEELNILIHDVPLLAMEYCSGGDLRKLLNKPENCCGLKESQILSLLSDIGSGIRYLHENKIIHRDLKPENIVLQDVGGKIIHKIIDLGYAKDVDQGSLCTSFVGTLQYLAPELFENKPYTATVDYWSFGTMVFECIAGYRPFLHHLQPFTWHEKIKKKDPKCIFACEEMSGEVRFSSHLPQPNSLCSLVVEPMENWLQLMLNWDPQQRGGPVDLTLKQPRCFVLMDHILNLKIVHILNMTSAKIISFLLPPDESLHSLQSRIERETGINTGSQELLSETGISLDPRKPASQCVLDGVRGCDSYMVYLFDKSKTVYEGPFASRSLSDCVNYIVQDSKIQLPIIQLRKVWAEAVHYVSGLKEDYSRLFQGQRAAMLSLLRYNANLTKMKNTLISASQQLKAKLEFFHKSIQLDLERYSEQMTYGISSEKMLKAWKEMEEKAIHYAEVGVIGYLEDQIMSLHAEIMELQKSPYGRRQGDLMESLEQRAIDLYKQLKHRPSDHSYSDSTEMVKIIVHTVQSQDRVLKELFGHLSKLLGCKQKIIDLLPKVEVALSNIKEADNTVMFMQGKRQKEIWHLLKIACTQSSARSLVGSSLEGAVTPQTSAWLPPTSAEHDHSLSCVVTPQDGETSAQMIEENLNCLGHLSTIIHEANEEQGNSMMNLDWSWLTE
In short: as §1

cKit(D816H)(h) = cKit(D816H)(h) (Homo sapiens, UniProt P10721, D816H); conditions: 100 μM peptide
In short: as §1

Src(T341M)(h) = Src(T341M)(h) (Homo sapiens, UniProt P12931, T341M); conditions: 100 μM peptide
In short: as §1

EphB3(h) = target: T3, EphB3(h) (Homo sapiens, UniProt P54753); conditions: 100 μM peptide
T3 sequence (P54753 34-998): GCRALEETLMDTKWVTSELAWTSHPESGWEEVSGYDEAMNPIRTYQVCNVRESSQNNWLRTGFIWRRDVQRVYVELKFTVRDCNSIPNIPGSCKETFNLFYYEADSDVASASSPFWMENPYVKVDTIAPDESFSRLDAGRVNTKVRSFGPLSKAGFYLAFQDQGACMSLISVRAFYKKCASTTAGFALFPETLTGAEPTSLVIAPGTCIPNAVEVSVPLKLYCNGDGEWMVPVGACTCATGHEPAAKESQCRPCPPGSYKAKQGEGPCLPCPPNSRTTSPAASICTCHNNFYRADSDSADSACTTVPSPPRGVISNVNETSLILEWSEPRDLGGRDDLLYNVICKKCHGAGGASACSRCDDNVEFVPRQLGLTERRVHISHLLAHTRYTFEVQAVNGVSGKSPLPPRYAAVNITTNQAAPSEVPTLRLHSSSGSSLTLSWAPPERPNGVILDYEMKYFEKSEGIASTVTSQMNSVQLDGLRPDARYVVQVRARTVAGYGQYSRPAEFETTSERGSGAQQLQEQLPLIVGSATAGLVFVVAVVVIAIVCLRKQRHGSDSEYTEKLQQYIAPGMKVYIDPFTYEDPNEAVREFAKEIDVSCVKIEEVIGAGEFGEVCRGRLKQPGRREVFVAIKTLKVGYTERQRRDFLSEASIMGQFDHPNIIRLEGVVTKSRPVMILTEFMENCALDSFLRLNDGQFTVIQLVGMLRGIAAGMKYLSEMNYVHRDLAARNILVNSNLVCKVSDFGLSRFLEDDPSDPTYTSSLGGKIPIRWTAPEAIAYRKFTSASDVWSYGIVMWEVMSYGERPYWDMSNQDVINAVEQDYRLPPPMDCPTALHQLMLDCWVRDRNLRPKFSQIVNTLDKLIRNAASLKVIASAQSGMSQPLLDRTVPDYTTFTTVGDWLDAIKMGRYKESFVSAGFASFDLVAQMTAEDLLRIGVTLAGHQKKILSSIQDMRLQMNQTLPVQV
In short: as §1

PDK1(h) = target: T4, PDK1(h) (Homo sapiens, UniProt O15530); conditions: 100 μM peptide
T4 sequence (O15530 1-556): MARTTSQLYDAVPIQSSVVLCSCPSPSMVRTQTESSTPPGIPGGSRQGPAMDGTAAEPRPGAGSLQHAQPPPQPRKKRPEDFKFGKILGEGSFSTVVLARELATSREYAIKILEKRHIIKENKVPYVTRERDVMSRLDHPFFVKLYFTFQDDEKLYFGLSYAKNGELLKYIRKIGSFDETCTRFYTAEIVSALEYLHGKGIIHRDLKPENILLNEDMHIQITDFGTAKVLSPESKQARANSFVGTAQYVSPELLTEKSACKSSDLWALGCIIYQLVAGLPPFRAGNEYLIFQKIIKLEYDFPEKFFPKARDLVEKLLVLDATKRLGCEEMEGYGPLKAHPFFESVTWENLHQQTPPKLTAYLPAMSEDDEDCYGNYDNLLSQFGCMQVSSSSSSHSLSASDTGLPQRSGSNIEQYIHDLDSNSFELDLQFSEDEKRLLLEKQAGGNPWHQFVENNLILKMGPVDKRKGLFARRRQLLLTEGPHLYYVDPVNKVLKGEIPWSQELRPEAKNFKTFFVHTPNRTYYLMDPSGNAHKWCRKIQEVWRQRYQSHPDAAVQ
In short: as §1

T1 sequence (P08631 whole entry): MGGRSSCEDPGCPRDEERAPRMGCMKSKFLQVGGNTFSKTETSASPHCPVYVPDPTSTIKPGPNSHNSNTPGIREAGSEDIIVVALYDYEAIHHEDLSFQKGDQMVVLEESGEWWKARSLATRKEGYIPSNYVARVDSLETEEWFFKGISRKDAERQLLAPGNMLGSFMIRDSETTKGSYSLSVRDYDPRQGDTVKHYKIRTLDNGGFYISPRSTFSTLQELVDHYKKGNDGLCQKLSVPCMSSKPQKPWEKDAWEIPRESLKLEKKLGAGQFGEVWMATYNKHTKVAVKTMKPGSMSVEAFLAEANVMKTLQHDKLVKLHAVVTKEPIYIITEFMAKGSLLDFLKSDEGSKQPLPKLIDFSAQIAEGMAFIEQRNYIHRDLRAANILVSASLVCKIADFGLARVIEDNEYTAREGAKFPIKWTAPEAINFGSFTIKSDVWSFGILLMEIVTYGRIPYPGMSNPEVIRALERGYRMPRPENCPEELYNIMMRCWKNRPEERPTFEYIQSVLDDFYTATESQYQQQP
MAPK2(h), sequence (P28482 whole entry): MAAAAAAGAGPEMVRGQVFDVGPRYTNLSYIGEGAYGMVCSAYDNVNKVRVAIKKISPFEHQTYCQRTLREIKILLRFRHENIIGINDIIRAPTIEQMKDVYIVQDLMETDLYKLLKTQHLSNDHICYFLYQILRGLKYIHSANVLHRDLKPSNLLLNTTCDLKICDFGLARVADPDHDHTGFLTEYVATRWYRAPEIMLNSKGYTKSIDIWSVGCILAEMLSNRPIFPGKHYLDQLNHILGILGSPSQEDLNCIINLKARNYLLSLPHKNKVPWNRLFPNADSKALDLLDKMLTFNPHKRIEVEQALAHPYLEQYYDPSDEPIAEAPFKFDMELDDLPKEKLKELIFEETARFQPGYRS
MAPKAP-K3(h), sequence (Q16644 whole entry): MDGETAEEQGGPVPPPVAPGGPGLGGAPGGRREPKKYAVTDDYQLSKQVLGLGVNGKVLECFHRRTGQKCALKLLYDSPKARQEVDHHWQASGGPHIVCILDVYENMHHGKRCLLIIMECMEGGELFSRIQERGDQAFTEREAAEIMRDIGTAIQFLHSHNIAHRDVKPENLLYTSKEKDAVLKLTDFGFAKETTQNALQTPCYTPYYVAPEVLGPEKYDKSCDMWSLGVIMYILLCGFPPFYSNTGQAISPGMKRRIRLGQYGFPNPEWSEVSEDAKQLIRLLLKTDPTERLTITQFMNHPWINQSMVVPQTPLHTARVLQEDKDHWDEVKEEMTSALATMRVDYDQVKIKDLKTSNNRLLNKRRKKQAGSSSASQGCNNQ
Fyn(h), sequence (P06241 whole entry): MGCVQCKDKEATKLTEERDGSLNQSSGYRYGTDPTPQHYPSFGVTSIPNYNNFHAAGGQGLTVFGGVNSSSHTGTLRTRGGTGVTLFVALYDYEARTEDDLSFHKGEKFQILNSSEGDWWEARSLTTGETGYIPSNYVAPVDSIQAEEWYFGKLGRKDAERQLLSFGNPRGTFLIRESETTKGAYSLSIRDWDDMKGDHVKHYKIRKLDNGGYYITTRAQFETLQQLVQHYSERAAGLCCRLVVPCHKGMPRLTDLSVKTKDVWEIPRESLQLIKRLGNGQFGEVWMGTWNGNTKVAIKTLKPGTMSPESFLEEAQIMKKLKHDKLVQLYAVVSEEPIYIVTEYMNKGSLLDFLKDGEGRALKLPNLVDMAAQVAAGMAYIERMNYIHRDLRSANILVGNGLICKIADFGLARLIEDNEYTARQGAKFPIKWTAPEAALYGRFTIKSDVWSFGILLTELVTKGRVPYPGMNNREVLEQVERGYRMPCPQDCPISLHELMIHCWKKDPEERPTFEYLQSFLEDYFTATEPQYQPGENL
MAPKAP-K2(h), sequence (P49137 whole entry): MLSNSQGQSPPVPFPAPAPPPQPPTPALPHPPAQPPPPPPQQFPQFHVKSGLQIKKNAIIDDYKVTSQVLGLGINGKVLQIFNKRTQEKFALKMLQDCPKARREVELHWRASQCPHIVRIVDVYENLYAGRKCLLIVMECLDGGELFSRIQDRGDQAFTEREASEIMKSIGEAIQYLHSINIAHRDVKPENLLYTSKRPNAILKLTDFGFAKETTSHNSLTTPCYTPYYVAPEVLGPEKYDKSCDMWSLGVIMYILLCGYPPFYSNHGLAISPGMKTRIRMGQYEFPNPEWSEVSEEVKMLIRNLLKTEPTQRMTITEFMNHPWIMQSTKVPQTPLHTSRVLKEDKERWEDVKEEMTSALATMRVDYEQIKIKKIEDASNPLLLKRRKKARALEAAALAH

| Molecule | MAPKAP-K2(h) % activity (MAPKAP-K2(h)) [%] | MAPK2(h) % activity (MAPK2(h)) [%] | Fyn(h) % activity (Fyn(h)) [%] | Hck(h) % activity (Hck(h)) [%] | MAPKAP-K3(h) % activity (MAPKAP-K3(h)) [%] | cKit(V654A)(h) % activity (cKit(V654A)(h)) [%] | IKKα(h) % activity (IKKα(h)) [%] | cKit(D816H)(h) % activity (cKit(D816H)(h)) [%] | Src(T341M)(h) % activity (Src(T341M)(h)) [%] | EphB3(h) % activity (EphB3(h)) [%] | PDK1(h) % activity (PDK1(h)) [%] | inhibition at 100 µM (MAPKAP-K2(h); read-out: inhibition of kinase activity of MK2) [%] | inhibition at 100 µM (MAPKAP-K3(h); read-out: inhibition of kinase activity of MK3) [%] |
| --- | --- | --- | --- | --- | --- | --- | --- | --- | --- | --- | --- | --- | --- |
| HRRIKAWLKKIKALARQLGVAA (Mammalian) [MMI-0500] | 9 | 60 | 83 | 78 | 9 | 223 | 50 | 194 | 59 | 79 | 178 | – | – |
| CC(C)C[C@H](NC(=O)[C@H](C)NC(=O)[C@H](CCCCN)NC(=O)[C@H](C)NC(=O)[C@H](CCCNC(=N)N)NC(=O)[C@H](C)NC(=O)[C@H](CCC(N)=O)NC(=O)[C@H](CCCNC(=N)N)NC(=O)[C@H](C)NC(=O)[C@H](C)NC(=O)[C@H](C)NC(=O)[C@H](CCCNC(=N)N)NC(=O)[C@H](C)NC(=O)[C@@H](N)Cc1ccc(O)cc1)C(=O)N[C@@H](C)C(=O)N[C@@H](CCCNC(=N)N)C(=O)N[C@@H](CCC(N)=O)C(=O)N[C@@H](CC(C)C)C(=O)NCC(=O)N[C@H](C(=O)N[C@@H](C)C(=O)N[C@@H](C)C(=O)O)C(C)C [MMI-0100] (H-YARAAARQARAKALARQLGVAA-OH; N-terminus and C-terminus assumed) | – | – | – | – | – | – | – | – | – | – | – | > 65 | > 65 |
| FAKLAARLYRKALARQLGVAA [MMI-0300] | 5 | 98 | 74 | 72 | 3 | 134 | 93 | 126 | 70 | 62 | 135 | – | – |
| YARAAARQARAKALNRQLGVA (Mammalian) [MMI-0200] | 35 | – | 75 | – | 39 | – | – | – | 56 | 128 | 143 | – | – |
| KAFAKLAARLYRKALARQLGVAA [MMI-0400] | 5 | 93 | 54 | 72 | 7 | 150 | 87 | 143 | 76 | 47 | 159 | – | – |
